Laboratory results from patent publication US20230058212A1 (UNIVERSIT DE BRETAGNE OCCIDENTALE UBO, published 2023).

Columns and labels:
[1] = target: T1, recombinant STIM1 EF/SAM peptide (STIM1 aa 58-201) (human, UniProt Q13586 58-201); assay: ELISA on recombinant STIM1 EF-SAM peptide (aa 58-201) at 1 µg/mL, B-M4 titrated
T1 construct: also called soluble recombinant protein corresponding to the STIM1 EF-Hand domain
Method: (§1) FIG. 3 illustrated the validation by Elisa of the monoclonal anti-STIM1 antibody clone B-M4. […] Anti-STIM1 mAb clone B-M4 mAb (10 μg/ml) was diluted to 1/10 and antigens STIM1 biotinylated peptides used at concentrations of 50 ng/well for peptides 1A and 1B and 100 ng/well for peptide 2A and 10 ng/well for peptide 2B. Panel B: Specificity of the B-M4 antibody for STIM1 is confirmed by ELISA using the peptide 2B and a recombinant STIM1 EF/SAM peptide (1 μg/mL). B-M4 mAb used at 100 μg/mL diluted to 1/10. Panel C: Specificity for the B-M4 antibody for the peptide 2B over the other peptides (1A, 1B, 2A, 2B, C2, C3, C4, C5, C6, C7 and C8). Peptides are used at a concentration of 1 μg/mL. Histograms represents mean optical density measured using an Elisa approach.

[2] = target: T2, STIM1 peptide 2B (amino acids 97-127 of STIM1) (human, biotinylated in the ELISA of FIG. 3 panel A (position not given)); assay: ELISA on Peptide 2B (aa 97-127), B-M4 titrated
T2 construct: One of the two immunization peptides
Method: as §1

[3] = target: T3, mouse STIM1 at the plasma membrane of mouse spleen B and T cells (mouse, UniProt P70302 23-685); assay: direct flow cytometry with PE coupled B-M4 on spleen B and T cells, n=4
T3 construct: whole, on cells; also called mSTIM1 (mice B and T cells)

[4] = target: T1, recombinant STIM1 EF/SAM peptide (STIM1 …); assay: Octet, EF-SAM peptide at 300, 200 and 133 nM, 1 to 1 fitting model; same value in all three rows [table]
Method: (§2) FIG. 9 represents the determination of the anti-STIM1 mAb clone B-M4 affinity. […] High affinity interaction is characterized by a low K, a fast recognizing (high kon) and a stable formation of complexes (low kdis). kdis: dissociation rate constant. kon: complex formation rate.
(§3) Affinity constants (Kon, Kdis) were calculated.

[5] = target: T1, recombinant STIM1 EF/SAM peptide (STIM1 …); assay: Octet (BLI), 1 to 1 fitting model, EF-SAM peptide at 300, 200 and 133 nM
Method: as §3

Peptide 1A = target: T4, Peptide 1A (biotinylated in the ELISA of Figure 3 A (site not given)); assay: ELISA, DO492 - DO Blanc and DO492 - DO630
T4 construct: also called STIM1 peptide 1A; aa 128 to aa 168
Method: as §1

Peptide 1B = target: T5, Peptide 1B (biotinylated in the ELISA of Figure 3 A (site not given)); assay: ELISA, DO492 - DO Blanc
T5 construct: also called STIM1 peptide 1B; aa 169 to aa 197
Method: as §1

Peptide 2A = target: T6, Peptide 2A (biotinylated in the ELISA of Figure 3 A (site not given)); assay: ELISA, DO492 - DO Blanc
T6 construct: also called STIM1 peptide 2A; aa 62 to aa 95
Method: as §1

[6] = target: T1, recombinant STIM1 EF/SAM peptide (STIM1 …); assay: Octet, EF-SAM peptide at 300, 200 and 133 nM, 1 to 1 fitting model; column kdis, same value in all three rows [table]
Method: as §2, §3

T1 sequence (Q13586 58-201): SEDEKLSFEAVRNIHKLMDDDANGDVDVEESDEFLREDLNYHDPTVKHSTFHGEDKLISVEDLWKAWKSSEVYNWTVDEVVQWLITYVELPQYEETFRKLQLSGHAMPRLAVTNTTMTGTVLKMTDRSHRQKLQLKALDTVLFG
T2 sequence (peptide, as listed by the source): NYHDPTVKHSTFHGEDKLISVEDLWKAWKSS
T3 sequence (P70302 23-685): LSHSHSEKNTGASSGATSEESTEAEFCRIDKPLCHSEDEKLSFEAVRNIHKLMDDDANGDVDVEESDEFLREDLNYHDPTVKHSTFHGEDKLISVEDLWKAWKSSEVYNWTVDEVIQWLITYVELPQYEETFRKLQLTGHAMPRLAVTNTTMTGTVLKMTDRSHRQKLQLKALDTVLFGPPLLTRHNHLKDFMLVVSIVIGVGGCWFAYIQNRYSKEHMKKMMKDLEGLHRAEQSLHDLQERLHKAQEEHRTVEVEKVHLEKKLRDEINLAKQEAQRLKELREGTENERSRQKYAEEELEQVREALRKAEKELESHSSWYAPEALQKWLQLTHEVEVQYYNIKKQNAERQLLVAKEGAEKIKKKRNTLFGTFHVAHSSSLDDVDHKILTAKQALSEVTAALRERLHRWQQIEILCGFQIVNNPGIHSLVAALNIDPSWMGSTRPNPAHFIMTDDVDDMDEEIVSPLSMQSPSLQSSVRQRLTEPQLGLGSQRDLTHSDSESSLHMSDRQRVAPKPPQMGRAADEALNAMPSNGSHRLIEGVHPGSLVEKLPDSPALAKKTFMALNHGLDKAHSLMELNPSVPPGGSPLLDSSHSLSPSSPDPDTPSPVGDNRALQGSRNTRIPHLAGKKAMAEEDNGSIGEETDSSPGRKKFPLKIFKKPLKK
T6 sequence (peptide, as listed by the source): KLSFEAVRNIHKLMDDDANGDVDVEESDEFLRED
T4 sequence (peptide, as listed by the source): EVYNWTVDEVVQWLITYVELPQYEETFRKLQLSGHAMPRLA
T5 sequence (peptide, as listed by the source): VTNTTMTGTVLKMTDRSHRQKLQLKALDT

EC50 (read off the curve) [1]: ~0.07 µg/mL
EC50 (read off the curve) [2]: ~0.02 µg/mL
binding result [3]: binds
kon [4]: 9960 M⁻¹ s⁻¹
Kd [5]: 37 nM
binding result (Peptide 1A): no binding
binding result (Peptide 1B): no binding
binding result (Peptide 2A): no binding
koff [6]: 0.000369 s⁻¹
B1: monoclonal anti-STIM1 antibody clone B-M4 (antibody, V domains shown)
VH: EVKLVESGGGLVQPGGSLKLSCAASGFTFSRYSMSWVRQTPEKRLEWVAHIRNGGGSTYYPDTVKGRFTISRDNAKNTLYLQMSSLKSEDTAMYYCARPPYGNYEGYFDVWGAGTTVTVSS
VL: DIVMSQSPSSLAVSAGEKVTMSCKSSQSLLNSRTRKNYLAWYQQKPGQSPKLLIYWASTRESGVPDRFTGSGSGTDFTLTISSVQAEDLAVYYCKQSYNLYTFGGGTKLEIK
notes: In the direct flow cytometry assays it was coupled to phycoerythrin (PE); also called B-M4 mAb; anti-STIM1 mAb clone B-M4
